Experimental data taken from the supplement of paper PMC10065799, “High-throughput profiling of sequence recognition by tyrosine kinases and SH2 domains using bacterial peptide display” (eLife, 2023).

How the values were obtained:
AncSZ = test: phosphorylation enrichment, bacterial display (enrichment ratio); higher = better substrate or ligand; peptides without Tyr show the background
EPHB1 = EPHB1 (UniProt P54762); test: as above
EPHB2 = EPHB2 (UniProt P29323); test: as above
FGFR1 = FGFR1 (UniProt P11362); test: as above
FGFR3 = FGFR3 (UniProt P22607); test: as above
FGFR3, sequence (P22607 whole entry, looked up): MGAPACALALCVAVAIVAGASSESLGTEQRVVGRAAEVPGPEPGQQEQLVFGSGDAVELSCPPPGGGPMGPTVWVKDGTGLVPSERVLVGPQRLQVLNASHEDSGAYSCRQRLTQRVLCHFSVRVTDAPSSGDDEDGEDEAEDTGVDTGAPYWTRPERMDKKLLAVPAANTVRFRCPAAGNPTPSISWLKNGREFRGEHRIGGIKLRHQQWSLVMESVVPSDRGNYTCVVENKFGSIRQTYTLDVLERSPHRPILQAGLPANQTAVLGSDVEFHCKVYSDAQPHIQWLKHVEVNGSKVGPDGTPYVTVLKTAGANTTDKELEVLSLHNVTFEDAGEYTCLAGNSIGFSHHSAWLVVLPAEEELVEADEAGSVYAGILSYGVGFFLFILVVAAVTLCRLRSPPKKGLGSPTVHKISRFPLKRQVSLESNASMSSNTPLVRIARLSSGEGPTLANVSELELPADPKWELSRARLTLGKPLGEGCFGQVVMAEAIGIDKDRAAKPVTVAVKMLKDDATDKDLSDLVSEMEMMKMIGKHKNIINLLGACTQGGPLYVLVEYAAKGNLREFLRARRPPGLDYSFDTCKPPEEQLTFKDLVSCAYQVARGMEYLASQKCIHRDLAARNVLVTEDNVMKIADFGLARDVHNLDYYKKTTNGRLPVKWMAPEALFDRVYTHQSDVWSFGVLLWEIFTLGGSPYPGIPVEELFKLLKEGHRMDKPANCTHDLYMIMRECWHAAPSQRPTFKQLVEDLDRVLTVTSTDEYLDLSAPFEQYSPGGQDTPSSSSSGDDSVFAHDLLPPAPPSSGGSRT

Fer (mouse) = test: as above
Fes = Fes (UniProt P07332); test: as above
Fes, sequence (P07332 whole entry, looked up): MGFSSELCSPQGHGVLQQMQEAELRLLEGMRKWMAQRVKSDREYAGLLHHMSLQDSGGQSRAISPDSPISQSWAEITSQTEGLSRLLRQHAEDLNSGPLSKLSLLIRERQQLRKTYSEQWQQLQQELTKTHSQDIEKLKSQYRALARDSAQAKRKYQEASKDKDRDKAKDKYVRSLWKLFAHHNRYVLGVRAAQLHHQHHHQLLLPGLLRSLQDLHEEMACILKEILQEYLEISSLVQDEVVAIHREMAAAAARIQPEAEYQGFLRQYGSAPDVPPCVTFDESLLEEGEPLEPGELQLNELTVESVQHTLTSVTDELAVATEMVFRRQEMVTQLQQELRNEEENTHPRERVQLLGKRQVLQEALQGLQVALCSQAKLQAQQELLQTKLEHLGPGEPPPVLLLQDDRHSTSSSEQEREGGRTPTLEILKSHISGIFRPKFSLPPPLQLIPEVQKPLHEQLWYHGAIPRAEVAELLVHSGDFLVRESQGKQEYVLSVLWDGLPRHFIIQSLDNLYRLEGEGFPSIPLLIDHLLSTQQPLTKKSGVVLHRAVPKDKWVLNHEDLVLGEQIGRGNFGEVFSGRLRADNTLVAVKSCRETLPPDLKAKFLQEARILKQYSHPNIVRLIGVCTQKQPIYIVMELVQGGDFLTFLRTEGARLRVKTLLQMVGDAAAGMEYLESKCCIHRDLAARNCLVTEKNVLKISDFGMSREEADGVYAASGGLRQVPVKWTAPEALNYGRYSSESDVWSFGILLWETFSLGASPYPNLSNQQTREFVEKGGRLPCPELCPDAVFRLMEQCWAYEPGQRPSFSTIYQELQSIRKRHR

Fyn = Fyn (UniProt P06241); test: as above
Fyn, sequence (P06241 whole entry, looked up): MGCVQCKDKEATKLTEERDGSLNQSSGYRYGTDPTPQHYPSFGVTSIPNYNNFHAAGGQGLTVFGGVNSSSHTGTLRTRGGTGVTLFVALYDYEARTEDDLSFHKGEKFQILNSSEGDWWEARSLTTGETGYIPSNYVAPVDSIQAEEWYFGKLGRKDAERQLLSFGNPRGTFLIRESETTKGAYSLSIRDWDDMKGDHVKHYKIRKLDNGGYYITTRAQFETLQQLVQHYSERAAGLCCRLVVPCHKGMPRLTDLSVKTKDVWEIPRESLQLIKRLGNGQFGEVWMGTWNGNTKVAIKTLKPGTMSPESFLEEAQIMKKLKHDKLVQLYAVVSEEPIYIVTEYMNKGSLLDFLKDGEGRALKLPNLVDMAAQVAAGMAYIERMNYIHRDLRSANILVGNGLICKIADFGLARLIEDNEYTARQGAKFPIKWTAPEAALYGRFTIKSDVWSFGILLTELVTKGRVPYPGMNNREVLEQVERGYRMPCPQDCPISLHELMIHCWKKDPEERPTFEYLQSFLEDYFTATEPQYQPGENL

Hck = Hck (UniProt P08631); test: as above
Hck, sequence (P08631 whole entry, looked up): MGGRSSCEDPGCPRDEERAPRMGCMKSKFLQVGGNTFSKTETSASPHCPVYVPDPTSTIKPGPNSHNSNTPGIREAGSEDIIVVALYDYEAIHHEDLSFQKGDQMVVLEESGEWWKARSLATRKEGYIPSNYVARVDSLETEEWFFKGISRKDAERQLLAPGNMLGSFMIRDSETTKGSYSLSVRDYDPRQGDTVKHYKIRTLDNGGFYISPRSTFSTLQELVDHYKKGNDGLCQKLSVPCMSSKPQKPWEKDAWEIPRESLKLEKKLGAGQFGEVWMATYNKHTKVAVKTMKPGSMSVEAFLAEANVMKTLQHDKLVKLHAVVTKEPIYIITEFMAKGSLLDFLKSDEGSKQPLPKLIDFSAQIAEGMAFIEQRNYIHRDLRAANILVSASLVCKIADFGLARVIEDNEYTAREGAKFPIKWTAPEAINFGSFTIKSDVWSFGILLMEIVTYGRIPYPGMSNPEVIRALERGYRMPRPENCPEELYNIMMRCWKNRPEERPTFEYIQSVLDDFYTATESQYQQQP

Jak2 = Jak2 (UniProt O60674); test: as above
MERTK = MERTK (UniProt Q12866); test: as above
c-Abl (mouse) = test: as above
c-Src = test: as above
Grb2 SH2 = Grb2 SH2 (UniProt P62993); test: SH2 binding enrichment of the phosphorylated peptide, bacterial display (enrichment ratio); higher = better substrate or ligand; peptides without Tyr show the background
Grb2 SH2, sequence (P62993 whole entry, looked up): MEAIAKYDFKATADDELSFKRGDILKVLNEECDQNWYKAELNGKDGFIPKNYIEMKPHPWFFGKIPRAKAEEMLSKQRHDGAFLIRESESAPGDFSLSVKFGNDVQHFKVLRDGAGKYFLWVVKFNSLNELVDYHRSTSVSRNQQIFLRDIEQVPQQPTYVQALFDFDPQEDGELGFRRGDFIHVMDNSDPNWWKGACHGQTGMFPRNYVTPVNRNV

SHP2-C SH2 = test: as above
c-Src SH2 = test: as above
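Wherever SH2 binding enrichment of the phosphorylated peptide, bacterial display is given: peptide library displayed on the E. coli surface as eCPX fusions, selected cells deep-sequenced, score is each peptide's frequency after selection divided by its frequency in the input.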
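Wherever phosphorylation enrichment, bacterial display is given: 11-residue human phosphosite peptides and single-mutation variants displayed on the E. coli surface, counted by deep sequencing, each peptide's frequency after selection divided by its frequency in the unselected input library; frequency after pTyr selection over input frequency; kinase dosed for 20-30% of maximal phosphorylation in three min.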

EPHB1, sequence (P54762 whole entry, looked up): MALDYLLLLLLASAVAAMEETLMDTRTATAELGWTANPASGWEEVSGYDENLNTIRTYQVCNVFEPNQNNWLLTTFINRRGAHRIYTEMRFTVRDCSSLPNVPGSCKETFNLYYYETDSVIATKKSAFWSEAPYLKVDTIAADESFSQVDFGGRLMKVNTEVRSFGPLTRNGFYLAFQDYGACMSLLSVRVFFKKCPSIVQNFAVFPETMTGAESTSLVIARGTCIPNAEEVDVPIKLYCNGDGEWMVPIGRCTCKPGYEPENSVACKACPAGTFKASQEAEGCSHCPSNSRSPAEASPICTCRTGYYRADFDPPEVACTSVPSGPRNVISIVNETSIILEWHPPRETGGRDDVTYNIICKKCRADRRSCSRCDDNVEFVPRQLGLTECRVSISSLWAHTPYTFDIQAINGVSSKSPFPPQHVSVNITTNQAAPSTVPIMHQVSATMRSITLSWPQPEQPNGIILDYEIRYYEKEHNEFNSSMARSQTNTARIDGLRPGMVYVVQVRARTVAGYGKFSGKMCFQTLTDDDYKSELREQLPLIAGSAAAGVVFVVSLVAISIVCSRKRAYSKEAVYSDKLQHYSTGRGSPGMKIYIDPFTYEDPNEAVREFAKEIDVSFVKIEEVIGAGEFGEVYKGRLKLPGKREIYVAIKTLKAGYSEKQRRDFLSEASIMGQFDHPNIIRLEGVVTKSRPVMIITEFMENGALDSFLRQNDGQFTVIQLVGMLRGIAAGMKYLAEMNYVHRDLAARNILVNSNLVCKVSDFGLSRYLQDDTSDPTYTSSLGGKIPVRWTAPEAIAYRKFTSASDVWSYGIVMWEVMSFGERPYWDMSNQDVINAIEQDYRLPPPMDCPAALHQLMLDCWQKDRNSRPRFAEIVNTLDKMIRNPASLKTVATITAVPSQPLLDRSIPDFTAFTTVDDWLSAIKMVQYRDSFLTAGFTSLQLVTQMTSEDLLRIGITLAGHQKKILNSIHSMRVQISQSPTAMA
EPHB2, sequence (P29323 whole entry, looked up): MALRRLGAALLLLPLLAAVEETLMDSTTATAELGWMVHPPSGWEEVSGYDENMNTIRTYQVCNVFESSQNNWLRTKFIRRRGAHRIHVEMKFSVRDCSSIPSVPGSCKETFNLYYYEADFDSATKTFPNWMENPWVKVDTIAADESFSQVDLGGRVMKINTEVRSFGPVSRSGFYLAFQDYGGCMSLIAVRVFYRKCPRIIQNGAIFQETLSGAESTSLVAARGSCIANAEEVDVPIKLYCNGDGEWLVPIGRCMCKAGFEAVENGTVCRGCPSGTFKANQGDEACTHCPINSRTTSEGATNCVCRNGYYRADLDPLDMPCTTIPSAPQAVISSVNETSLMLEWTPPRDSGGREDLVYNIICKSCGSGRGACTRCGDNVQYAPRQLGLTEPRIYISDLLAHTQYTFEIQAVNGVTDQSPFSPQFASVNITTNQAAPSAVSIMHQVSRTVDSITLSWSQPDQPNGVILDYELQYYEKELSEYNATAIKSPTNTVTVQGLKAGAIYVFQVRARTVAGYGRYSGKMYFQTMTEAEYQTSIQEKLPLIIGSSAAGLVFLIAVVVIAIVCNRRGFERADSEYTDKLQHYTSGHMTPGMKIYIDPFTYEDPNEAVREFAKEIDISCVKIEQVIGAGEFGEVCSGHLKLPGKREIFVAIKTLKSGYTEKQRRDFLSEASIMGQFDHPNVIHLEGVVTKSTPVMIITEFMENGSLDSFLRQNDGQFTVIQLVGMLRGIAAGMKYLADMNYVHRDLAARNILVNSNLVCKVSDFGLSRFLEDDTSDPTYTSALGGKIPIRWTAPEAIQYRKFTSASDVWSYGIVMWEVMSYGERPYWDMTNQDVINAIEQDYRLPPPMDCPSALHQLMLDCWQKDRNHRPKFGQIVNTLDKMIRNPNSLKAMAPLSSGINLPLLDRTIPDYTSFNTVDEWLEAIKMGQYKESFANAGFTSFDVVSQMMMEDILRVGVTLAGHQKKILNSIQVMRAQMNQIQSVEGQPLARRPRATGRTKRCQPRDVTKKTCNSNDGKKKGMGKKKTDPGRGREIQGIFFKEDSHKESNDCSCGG

Row | Sequence | phosphorylation enrichment (AncSZ) | phosphorylation enrichment (EPHB1) | phosphorylation enrichment (EPHB2) | phosphorylation enrichment (FGFR1) | phosphorylation enrichment (FGFR3) | phosphorylation enrichment (Fer (mouse)) | phosphorylation enrichment (Fes) | phosphorylation enrichment (Fyn) | phosphorylation enrichment (Hck) | phosphorylation enrichment (Jak2) | phosphorylation enrichment (MERTK) | phosphorylation enrichment (c-Abl (mouse)) | phosphorylation enrichment (c-Src) | SH2 binding enrichment (Grb2 SH2) | SH2 binding enrichment (SHP2-C SH2) | SH2 binding enrichment (c-Src SH2)
1 | VRFMADTDETF [F8_Y450_Y450D] | 1.21 | 0.63 | 0.644 | 0.505 | 0.755 | 0.628 | 1.3 | 0.54 | 0.59 | 1.07 | 0.451 | 0.856 | 0.471 | 0.676 | 0.542 | 0.403
2 | VRHRRYKHTHE [CTCF_Y343] | 0.759 | 0.55 | 0.622 | 0.743 | 0.603 | 0.584 | 0.654 | 0.613 | 0.631 | 0.643 | 0.684 | 0.816 | 0.788 | 0.665 | 0.714 | 0.364
3 | VRLTEYPCAGL | 0.638 | 0.456 | 0.457 | 0.396 | 0.523 | 0.381 | 0.781 | 0.358 | 0.428 | 0.673 | 0.367 | 0.527 | 0.398 | 0.932 | 0.76 | 0.572
4 | VRSTEYPCAGL | 0.586 | 0.554 | 0.483 | 0.447 | 0.497 | 0.292 | 0.798 | 0.397 | 0.338 | 0.713 | 0.362 | 0.611 | 0.471 | 1.03 | 1.08 | 0.615
5 | VSGIPYSQPKQ [NEU1_Y251_G252S] | 0.467 | 0.234 | 0.4 | 0.389 | 0.443 | 0.467 | 0.474 | 0.398 | 0.358 | 0.943 | 0.326 | 0.416 | 0.388 | 0.751 | 0.646 | 0.617
6 | VSSPKYGSDDE [TMCC2_Y473] | 0.968 | 0.559 | 0.505 | 0.46 | 0.713 | 0.553 | 1.01 | 0.556 | 0.429 | 0.926 | 0.464 | 0.992 | 0.619 | 1.13 | 0.93 | 0.556
7 | VTRLRYPVCFG [ITK_Y336] | 0.815 | 0.528 | 0.543 | 0.467 | 0.877 | 0.487 | 1.07 | 0.453 | 0.555 | 0.825 | 0.471 | 0.756 | 0.467 | 1.05 | 1.01 | 1.06
8 | VVSLFYGTALF [OR10C1_Y251_M246V] | 1.25 | 0.698 | 0.812 | 0.566 | 0.804 | 1.1 | 1.43 | 1.94 | 1.42 | 1.61 | 0.7 | 1.21 | 1.97 | 0.713 | 0.516 | 0.353
9 | VVTGPYEKPSL [KIR3DS1_Y221_L220P] | 1.04 | 0.55 | 0.513 | 0.581 | 0.491 | 0.665 | 0.746 | 0.473 | 0.503 | 0.69 | 0.45 | 0.966 | 0.472 | 0.875 | 0.636 | 0.704
10 | WGLRSYFETSK [MAGED2_Y448_YF] | 0.967 | 0.553 | 0.594 | 0.536 | 0.645 | 0.42 | 1.08 | 0.526 | 0.489 | 1.04 | 0.385 | 0.517 | 0.32 | 1.08 | 1.53 | 0.882
11 | WISNRSLDFSS [PRPH2_Y184_Y184S] | 0.646 | 0.452 | 0.469 | 0.788 | 0.583 | 0.583 | 0.765 | 0.401 | 0.427 | 0.713 | 0.408 | 0.578 | 0.321 | 0.745 | 0.529 | 0.419
12 | WISNRYLDFSS [PRPH2_Y184] | 0.961 | 0.505 | 0.535 | 0.564 | 0.676 | 0.499 | 0.946 | 0.524 | 0.577 | 0.894 | 0.54 | 0.793 | 0.705 | 0.871 | 0.688 | 0.62
13 | WKEIEYEVVRD [CPS1_Y634] | 1.31 | 0.701 | 1.2 | 0.549 | 0.754 | 0.583 | 1.09 | 0.553 | 0.609 | 0.899 | 0.384 | 0.573 | 0.473 | 0.697 | 0.65 | 0.524
14 | WNNLDYMDSRR [GAA_Y407_D404N] | 0.964 | 0.914 | 0.821 | 0.538 | 0.636 | 0.498 | 0.907 | 0.464 | 0.572 | 0.749 | 0.392 | 0.581 | 0.412 | 0.861 | 1.43 | 0.527
15 | WQQQSYLDSVI [CTNNB1_Y30_G34V] | 0.983 | 0.511 | 0.668 | 0.579 | 0.716 | 0.469 | 1.03 | 0.504 | 0.529 | 0.908 | 0.406 | 0.806 | 0.496 | 0.757 | 0.509 | 0.444
16 | WRGMPYGGRGD [TGM1_Y312_R307W] | 0.548 | 0.34 | 0.401 | 0.388 | 0.486 | 0.31 | 0.514 | 0.467 | 0.39 | 0.482 | 0.363 | 0.396 | 0.419 | 1.19 | 0.739 | 0.709
17 | WTAHSYRMGST [ARHGEF7_Y785] | 0.642 | 0.46 | 0.407 | 0.496 | 0.47 | 0.482 | 0.659 | 0.479 | 0.432 | 0.432 | 0.37 | 0.437 | 0.374 | 0.838 | 0.651 | 0.538
18 | YDAHNYHPLPV [OAT_Y55_G51D] | 0.871 | 0.923 | 1.62 | 12.7 | 7.27 | 6.52 | 0.685 | 0.864 | 2.01 | 0.848 | 3.58 | 1.05 | 0.622 | 1.15 | 0.697 | 0.813
19 | YETDYYRKGGK [INSR_Y1190] | 0.668 | 0.41 | 0.419 | 0.522 | 0.492 | 0.392 | 0.864 | 0.398 | 0.469 | 0.83 | 0.427 | 0.752 | 0.338 | 0.675 | 0.676 | 0.622
20 | YFRDGYMPRQY [GSS_Y270] | 0.615 | 0.429 | 0.491 | 3.74 | 2.73 | 0.531 | 0.74 | 0.479 | 0.402 | 0.928 | 0.418 | 0.496 | 0.509 | 1.01 | 0.848 | 0.627
21 | YFWDGYMPRQY [GSS_Y270_R267W] | 1.01 | 0.68 | 0.521 | 10.8 | 9.39 | 0.576 | 1.18 | 0.547 | 0.783 | 5.42 | 3.96 | 0.565 | 0.772 | 1.11 | 1.1 | 1.07
22 | YGMSTYITRED [FNDC3B_Y180] | 0.972 | 0.712 | 0.584 | 0.514 | 0.683 | 0.745 | 1.25 | 0.852 | 0.873 | 1.07 | 0.46 | 0.924 | 0.981 | 0.608 | 0.576 | 0.464
23 | YIATQYSLCPR [LBR_Y166_R169C] | 1.23 | 0.511 | 0.817 | 1.73 | 1.19 | 0.606 | 0.907 | 0.67 | 0.719 | 0.873 | 1.75 | 0.716 | 0.725 | 0.885 | 0.839 | 0.713
24 | YIGVTYKNKED [PDGFRA_Y993_E996K] | 0.896 | 0.564 | 0.505 | 0.819 | 0.747 | 0.533 | 1.07 | 0.505 | 0.753 | 0.809 | 0.44 | 0.675 | 0.476 | 0.835 | 1.39 | 0.961
25 | YQGGTYSKACT [FGG_Y380_S384C] | 0.52 | 0.428 | 0.4 | 0.349 | 0.529 | 0.38 | 0.74 | 0.383 | 0.541 | 0.59 | 0.459 | 0.719 | 0.436 | 0.997 | 1.03 | 0.869
26 | YQKDVYDIPPS [NEDD9_Y177] | 0.954 | 0.788 | 3.2 | 0.528 | 0.499 | 0.611 | 0.735 | 3.66 | 3.38 | 0.614 | 7.34 | 0.734 | 3.26 | 0.852 | 0.531 | 0.532
27 | YRVAGYKTQGG [TIA1_Y383_E384K] | 0.509 | 0.368 | 0.309 | 0.434 | 0.376 | 0.363 | 0.461 | 0.494 | 0.366 | 0.42 | 0.312 | 1.98 | 0.435 | 0.68 | 0.553 | 0.409
28 | YSNKLHYQLEQ [PDPR_Y109_Y109H] | 1.12 | 0.498 | 0.439 | 0.435 | 0.592 | 0.461 | 0.782 | 0.568 | 0.535 | 0.757 | 0.484 | 0.495 | 0.553 | 0.98 | 0.54 | 0.606
29 | YSTPPYLLEAA [BRIP1_Y921_S919P] | 1.77 | 0.664 | 0.711 | 1.16 | 0.935 | 1.09 | 1.17 | 1.56 | 1.61 | 1.04 | 3.63 | 1.8 | 1.6 | 0.862 | 0.811 | 1.08
30 | YVPSFYHAFSG [ACTN4_Y265_S262P] | 0.81 | 2.09 | 1.03 | 1.32 | 1.17 | 0.407 | 0.99 | 1.82 | 1.94 | 0.794 | 7.65 | 1.06 | 2.17 | 1.2 | 0.673 | 0.997
